Data published in the supplement of paper PMC10065799, “High-throughput profiling of sequence recognition by tyrosine kinases and SH2 domains using bacterial peptide display” (eLife, 2023).

Columns and labels:
[1] = test system: AncSZ; experiment: phosphorylation enrichment, bacterial display (enrichment ratio); higher = better substrate or ligand; peptides without Tyr show the background
[2] = target: EPHB1 (UniProt P54762); experiment: as above
[3] = target: EPHB2 (UniProt P29323); experiment: as above
Chain of EPHB2 (P29323 whole entry, looked up): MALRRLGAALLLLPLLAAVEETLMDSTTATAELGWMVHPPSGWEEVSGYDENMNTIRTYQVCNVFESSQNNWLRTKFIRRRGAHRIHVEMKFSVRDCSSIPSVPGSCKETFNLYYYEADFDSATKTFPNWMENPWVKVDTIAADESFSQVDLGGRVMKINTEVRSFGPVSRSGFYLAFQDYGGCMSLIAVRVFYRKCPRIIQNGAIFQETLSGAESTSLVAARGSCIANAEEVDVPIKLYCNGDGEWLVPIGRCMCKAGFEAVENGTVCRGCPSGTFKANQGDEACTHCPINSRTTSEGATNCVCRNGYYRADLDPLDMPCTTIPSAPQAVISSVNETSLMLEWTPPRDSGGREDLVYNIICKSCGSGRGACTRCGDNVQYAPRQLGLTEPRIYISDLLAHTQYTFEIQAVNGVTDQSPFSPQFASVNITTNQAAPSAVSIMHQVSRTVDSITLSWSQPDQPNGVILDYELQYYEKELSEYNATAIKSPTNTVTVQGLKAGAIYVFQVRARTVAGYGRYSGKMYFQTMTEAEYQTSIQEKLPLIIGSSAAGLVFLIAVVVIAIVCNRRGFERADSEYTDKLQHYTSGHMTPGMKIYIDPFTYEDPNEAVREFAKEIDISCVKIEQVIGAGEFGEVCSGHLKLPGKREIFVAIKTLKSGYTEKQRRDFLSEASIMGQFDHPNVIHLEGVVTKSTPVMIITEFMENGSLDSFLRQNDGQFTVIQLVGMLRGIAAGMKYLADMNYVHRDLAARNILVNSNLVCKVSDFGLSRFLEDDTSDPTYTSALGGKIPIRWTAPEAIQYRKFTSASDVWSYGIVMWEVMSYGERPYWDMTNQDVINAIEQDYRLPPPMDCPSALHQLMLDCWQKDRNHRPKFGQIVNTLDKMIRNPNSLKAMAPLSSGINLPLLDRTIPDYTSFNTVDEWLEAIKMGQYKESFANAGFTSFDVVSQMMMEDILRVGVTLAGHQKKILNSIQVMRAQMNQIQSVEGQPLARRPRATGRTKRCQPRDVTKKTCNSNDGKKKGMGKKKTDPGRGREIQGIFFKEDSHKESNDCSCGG

[4] = target: FGFR1 (UniProt P11362); experiment: as above
[5] = target: FGFR3 (UniProt P22607); experiment: as above
[6] = test system: Fer (mouse); experiment: as above
[7] = target: Fes (UniProt P07332); experiment: as above
Chain of Fes (P07332 whole entry, looked up): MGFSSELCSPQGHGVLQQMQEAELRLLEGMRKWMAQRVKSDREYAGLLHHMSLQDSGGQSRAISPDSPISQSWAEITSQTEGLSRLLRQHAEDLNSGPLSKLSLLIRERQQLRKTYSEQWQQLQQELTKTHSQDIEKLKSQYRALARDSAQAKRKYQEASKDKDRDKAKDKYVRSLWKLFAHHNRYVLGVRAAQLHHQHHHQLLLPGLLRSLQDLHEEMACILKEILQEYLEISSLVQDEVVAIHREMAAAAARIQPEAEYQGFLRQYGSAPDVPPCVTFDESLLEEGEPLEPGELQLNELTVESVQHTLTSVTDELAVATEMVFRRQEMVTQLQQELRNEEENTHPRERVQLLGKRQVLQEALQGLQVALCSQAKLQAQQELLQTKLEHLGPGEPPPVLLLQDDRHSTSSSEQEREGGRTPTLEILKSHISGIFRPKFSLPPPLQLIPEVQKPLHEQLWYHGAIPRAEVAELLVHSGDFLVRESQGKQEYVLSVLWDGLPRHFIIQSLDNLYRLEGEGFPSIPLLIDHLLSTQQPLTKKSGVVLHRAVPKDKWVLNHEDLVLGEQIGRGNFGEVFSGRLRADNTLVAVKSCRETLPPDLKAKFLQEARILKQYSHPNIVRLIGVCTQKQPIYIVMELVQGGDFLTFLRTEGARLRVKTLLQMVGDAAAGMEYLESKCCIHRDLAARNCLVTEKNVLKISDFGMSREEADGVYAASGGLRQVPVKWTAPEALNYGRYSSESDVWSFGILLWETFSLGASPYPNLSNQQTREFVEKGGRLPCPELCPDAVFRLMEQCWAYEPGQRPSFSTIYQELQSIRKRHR

[8] = target: Fyn (UniProt P06241); experiment: as above
Chain of Fyn (P06241 whole entry, looked up): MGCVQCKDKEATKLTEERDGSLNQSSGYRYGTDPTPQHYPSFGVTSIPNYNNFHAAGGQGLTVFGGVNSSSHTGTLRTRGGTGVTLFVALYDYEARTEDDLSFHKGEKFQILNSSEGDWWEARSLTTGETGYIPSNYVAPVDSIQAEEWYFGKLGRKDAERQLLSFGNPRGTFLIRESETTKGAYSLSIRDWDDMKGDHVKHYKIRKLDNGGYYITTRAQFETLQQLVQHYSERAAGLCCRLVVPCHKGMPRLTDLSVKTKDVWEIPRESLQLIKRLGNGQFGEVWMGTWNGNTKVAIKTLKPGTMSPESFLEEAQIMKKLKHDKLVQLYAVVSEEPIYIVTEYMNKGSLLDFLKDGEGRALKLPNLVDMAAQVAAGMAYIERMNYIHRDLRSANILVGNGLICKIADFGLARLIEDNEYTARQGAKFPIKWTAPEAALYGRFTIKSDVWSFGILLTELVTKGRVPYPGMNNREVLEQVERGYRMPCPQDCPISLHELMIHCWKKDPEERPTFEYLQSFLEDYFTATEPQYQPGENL

[9] = target: Hck (UniProt P08631); experiment: as above
[10] = target: Jak2 (UniProt O60674); experiment: as above
Chain of Jak2 (O60674 whole entry, looked up): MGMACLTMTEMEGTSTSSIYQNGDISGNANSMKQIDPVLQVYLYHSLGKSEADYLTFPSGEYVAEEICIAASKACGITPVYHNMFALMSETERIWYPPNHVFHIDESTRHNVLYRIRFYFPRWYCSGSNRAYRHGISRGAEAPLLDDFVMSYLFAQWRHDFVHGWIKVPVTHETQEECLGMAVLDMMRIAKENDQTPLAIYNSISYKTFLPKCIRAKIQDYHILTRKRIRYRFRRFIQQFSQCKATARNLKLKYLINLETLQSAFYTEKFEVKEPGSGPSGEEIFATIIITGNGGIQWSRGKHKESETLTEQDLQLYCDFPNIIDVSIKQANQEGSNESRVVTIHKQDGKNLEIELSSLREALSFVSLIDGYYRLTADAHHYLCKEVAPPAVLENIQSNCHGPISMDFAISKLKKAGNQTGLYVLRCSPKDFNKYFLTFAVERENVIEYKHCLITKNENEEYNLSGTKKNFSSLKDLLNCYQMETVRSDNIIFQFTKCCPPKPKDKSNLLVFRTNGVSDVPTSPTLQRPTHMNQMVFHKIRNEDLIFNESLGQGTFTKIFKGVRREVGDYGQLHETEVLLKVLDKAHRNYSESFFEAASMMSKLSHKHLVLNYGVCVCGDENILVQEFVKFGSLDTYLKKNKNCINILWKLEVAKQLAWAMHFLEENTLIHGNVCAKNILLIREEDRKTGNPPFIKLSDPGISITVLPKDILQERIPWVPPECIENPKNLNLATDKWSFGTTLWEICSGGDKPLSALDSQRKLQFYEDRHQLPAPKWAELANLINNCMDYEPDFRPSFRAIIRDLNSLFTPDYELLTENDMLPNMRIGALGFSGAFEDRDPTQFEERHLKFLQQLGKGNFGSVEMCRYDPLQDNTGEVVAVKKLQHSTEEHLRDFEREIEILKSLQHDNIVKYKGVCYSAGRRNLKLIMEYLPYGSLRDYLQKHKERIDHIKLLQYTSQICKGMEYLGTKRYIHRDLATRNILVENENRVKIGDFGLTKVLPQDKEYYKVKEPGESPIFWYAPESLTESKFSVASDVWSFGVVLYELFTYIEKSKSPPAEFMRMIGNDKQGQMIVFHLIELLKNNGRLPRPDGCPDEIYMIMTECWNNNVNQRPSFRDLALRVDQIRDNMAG

[11] = target: MERTK (UniProt Q12866); experiment: as above
Chain of MERTK (Q12866 whole entry, looked up): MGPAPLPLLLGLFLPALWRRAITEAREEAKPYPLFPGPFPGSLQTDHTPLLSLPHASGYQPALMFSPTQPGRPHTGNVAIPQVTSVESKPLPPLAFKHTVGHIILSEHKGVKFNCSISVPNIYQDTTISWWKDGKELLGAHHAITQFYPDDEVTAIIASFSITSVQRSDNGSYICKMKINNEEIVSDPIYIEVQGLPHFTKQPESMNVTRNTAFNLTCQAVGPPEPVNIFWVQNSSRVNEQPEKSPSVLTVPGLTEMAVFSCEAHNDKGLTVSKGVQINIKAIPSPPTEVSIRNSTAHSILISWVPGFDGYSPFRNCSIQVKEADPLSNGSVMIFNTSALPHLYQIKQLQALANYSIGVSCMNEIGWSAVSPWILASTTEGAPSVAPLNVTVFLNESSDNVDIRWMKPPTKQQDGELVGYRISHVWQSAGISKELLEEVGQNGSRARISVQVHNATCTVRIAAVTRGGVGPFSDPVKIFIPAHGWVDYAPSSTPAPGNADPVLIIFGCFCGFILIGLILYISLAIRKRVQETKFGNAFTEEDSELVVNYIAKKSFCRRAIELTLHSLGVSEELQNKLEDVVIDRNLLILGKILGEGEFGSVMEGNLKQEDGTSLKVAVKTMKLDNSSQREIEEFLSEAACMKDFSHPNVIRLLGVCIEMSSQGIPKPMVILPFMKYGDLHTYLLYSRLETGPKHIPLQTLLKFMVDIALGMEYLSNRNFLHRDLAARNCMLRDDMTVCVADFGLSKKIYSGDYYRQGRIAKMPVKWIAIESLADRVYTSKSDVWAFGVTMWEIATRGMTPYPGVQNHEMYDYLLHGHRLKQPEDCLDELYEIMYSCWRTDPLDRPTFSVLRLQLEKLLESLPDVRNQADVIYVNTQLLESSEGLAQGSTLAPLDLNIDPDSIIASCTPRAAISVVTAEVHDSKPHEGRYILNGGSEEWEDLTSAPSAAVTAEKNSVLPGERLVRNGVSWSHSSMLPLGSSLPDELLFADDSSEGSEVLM

[12] = test system: c-Abl (mouse); experiment: as above
[13] = test system: c-Src; experiment: as above
[14] = target: Grb2 SH2 (UniProt P62993); experiment: SH2 binding enrichment of the phosphorylated peptide, bacterial display (enrichment ratio); higher = better substrate or ligand; peptides without Tyr show the background
Chain of Grb2 SH2 (P62993 whole entry, looked up): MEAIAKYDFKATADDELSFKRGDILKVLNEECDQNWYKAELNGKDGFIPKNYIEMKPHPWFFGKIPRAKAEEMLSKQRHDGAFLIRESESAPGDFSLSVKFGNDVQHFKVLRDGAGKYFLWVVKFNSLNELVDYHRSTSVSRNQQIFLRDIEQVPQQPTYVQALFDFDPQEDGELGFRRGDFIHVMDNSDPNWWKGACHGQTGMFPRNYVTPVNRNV

[15] = target: SHP2-C SH2; experiment: as above
[16] = target: c-Src SH2; experiment: as above
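For SH2 binding enrichment of the phosphorylated peptide, bacterial display in this document: peptide library displayed on the E. coli surface as eCPX fusions, selected cells deep-sequenced, score is each peptide's frequency after selection divided by its frequency in the input.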
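For phosphorylation enrichment, bacterial display in this document: 11-residue human phosphosite peptides and single-mutation variants displayed on the E. coli surface, counted by deep sequencing, each peptide's frequency after selection divided by its frequency in the unselected input library; frequency after pTyr selection over input frequency; kinase dosed for 20-30% of maximal phosphorylation in three min.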

Sequence | phosphorylation enrichment [1] | phosphorylation enrichment [2] | phosphorylation enrichment [3] | phosphorylation enrichment [4] | phosphorylation enrichment [5] | phosphorylation enrichment [6] | phosphorylation enrichment [7] | phosphorylation enrichment [8] | phosphorylation enrichment [9] | phosphorylation enrichment [10] | phosphorylation enrichment [11] | phosphorylation enrichment [12] | phosphorylation enrichment [13] | SH2 binding enrichment [14] | SH2 binding enrichment [15] | SH2 binding enrichment [16]
RSFSPYDFQPC [TNS1_Y796_YF] | 1.5 | 0.672 | 0.929 | 0.66 | 0.788 | 0.822 | 1.29 | 5.66 | 0.959 | 1.28 | 1.69 | 1.18 | 5.06 | 0.744 | 0.613 | 0.668
MGGSLYFSFPD [HIKESHI_Y55_V54L_YF] | 2.27 | 7.73 | 5.46 | 5.92 | 5.74 | 0.871 | 1.8 | 5.08 | 4.95 | 3.96 | 9.75 | 1.61 | 5.75 | 0.926 | 0.591 | 0.444
SSEFHCVGGFF [CTSC_Y347_Y347C_YF] | 0.997 | 0.564 | 0.5 | 0.466 | 0.619 | 0.521 | 1.05 | 0.44 | 0.499 | 0.858 | 0.412 | 0.735 | 0.458 | 0.883 | 0.64 | 0.373
EEGRVYVFHLS [ITGAE_Y549_R552H_YF] | 1.18 | 0.672 | 0.573 | 0.557 | 0.756 | 0.648 | 1.25 | 0.512 | 0.46 | 0.958 | 0.48 | 0.825 | 0.522 | 0.888 | 0.567 | 0.482
FGRTFYNQAIM [MCCC2_Y196] | 1.08 | 0.476 | 0.529 | 0.377 | 0.535 | 0.411 | 1.04 | 0.407 | 0.462 | 0.96 | 0.431 | 0.635 | 0.463 | 0.672 | 0.592 | 0.625
IIEDPYFGNDS [ACP1_Y132_YF] | 1.59 | 0.804 | 0.62 | 0.695 | 1.1 | 0.711 | 1.62 | 0.867 | 0.96 | 1.45 | 0.651 | 1.04 | 1.74 | 0.946 | 0.584 | 0.541
KMGNIYRTEFG [MRPL3_Y265_YF] | 0.535 | 0.337 | 0.34 | 0.482 | 0.514 | 0.393 | 0.5 | 0.536 | 0.488 | 0.448 | 0.477 | 0.471 | 0.532 | 0.672 | 0.652 | 0.485
ESPGLYGFLNV [BCR_Y910] | 1.09 | 0.586 | 0.574 | 0.527 | 0.646 | 1.23 | 1.1 | 1.48 | 2.24 | 0.922 | 1.05 | 0.717 | 1.23 | 0.822 | 0.598 | 0.479
RHTRSYDYMEG [FGF7_Y56] | 0.609 | 0.534 | 0.92 | 0.7 | 0.529 | 0.533 | 0.958 | 0.561 | 0.716 | 0.513 | 0.628 | 0.552 | 0.389 | 1.33 | 1.06 | 3.83
LLIVEYAKYGS [RET_Y806] | 1.52 | 1.12 | 0.872 | 0.804 | 0.942 | 0.868 | 2.4 | 0.622 | 0.759 | 1.82 | 0.75 | 1.03 | 1.23 | 1.83 | 1.28 | 1.49
KHTLSYVDVGT [SDHA_Y629] | 0.703 | 0.573 | 0.42 | 0.724 | 0.589 | 0.392 | 0.685 | 0.348 | 0.431 | 0.552 | 0.295 | 0.53 | 0.283 | 0.817 | 0.967 | 0.759
IMITDYLPLFR [INSR_Y87_L89P] | 1.09 | 0.641 | 0.651 | 0.737 | 0.729 | 0.376 | 0.985 | 0.473 | 0.755 | 2.85 | 0.427 | 0.732 | 0.577 | 1.21 | 0.857 | 0.659
EEKSCYILHSS [PATJ_Y783_E780K] | 1.08 | 0.669 | 0.647 | 0.755 | 0.704 | 0.622 | 1.22 | 0.753 | 0.651 | 0.744 | 0.449 | 0.779 | 0.514 | 0.805 | 0.893 | 0.628
LEDPMYDIIRD [RP9_Y142_H137L] | 3.53 | 4.98 | 6.72 | 1.14 | 1.29 | 6.19 | 2.32 | 7.34 | 7.93 | 2.7 | 7.83 | 4.38 | 7.86 | 0.863 | 0.475 | 1.67
MTRDIYETDYY [INSR_Y1185] | 2.66 | 1.39 | 1.34 | 1.89 | 1.93 | 0.831 | 1.13 | 1.63 | 1.39 | 1.02 | 0.746 | 0.712 | 2.42 | 0.716 | 0.6 | 0.744
RNGDRYFKEIV [DCX_Y64_G67E] | 0.546 | 0.55 | 0.626 | 0.703 | 1.51 | 0.472 | 0.705 | 0.572 | 0.559 | 0.469 | 0.514 | 0.548 | 0.559 | 0.749 | 0.588 | 0.393
FKGKNYKPLDL [RPL35_Y78_K77N_YF] | 0.432 | 0.262 | 0.385 | 0.393 | 0.418 | 0.471 | 0.641 | 0.354 | 0.38 | 0.663 | 0.359 | 0.618 | 0.487 | 0.962 | 0.644 | 0.613
KGEDFYCVTCP [FHL1_Y149_H154P] | 1.47 | 0.586 | 0.589 | 1.15 | 1.04 | 2.65 | 1.01 | 4.22 | 2.96 | 1.33 | 6.08 | 0.646 | 3.64 | 1.01 | 0.644 | 1.04
FFRKFCNKSED [RYR1_Y4864_Y4864C] | 0.981 | 0.515 | 0.381 | 0.49 | 0.6 | 0.417 | 1.04 | 0.589 | 0.603 | 0.779 | 0.518 | 0.677 | 0.442 | 0.992 | 0.75 | 0.513
RSDSTYRMSAT [NHS_Y1532_S1531T] | 0.587 | 0.411 | 0.556 | 0.558 | 0.637 | 0.587 | 0.581 | 0.528 | 0.436 | 0.709 | 0.335 | 0.697 | 0.632 | 0.769 | 0.472 | 0.341
QKTGDYYDLYG [PTPN11_Y62_N58K] | 2.31 | 11 | 6.98 | 20.8 | 16.2 | 0.586 | 1.33 | 3.77 | 4.6 | 2.24 | 3.24 | 1.21 | 3.77 | 0.899 | 1.04 | 1.38
HSLLQYGGSAN [ANK1_Y624_R619H] | 0.579 | 0.421 | 0.583 | 0.316 | 0.531 | 0.447 | 0.481 | 0.427 | 0.505 | 0.394 | 0.386 | 0.472 | 0.357 | 0.862 | 0.661 | 0.367
QQIFTYDSGIH [JUP_Y22_T19I_YF] | 1.46 | 0.967 | 0.991 | 0.784 | 1.09 | 0.653 | 1.32 | 0.897 | 0.833 | 1.2 | 0.901 | 1.14 | 0.939 | 0.936 | 0.793 | 0.653
GLRQGYFVEAQ [APCS_Y142] | 0.945 | 0.526 | 0.505 | 0.559 | 0.637 | 0.42 | 1.08 | 0.366 | 0.408 | 0.807 | 0.36 | 0.529 | 0.327 | 0.85 | 0.718 | 0.618
DGTVHYVDEKG [IFT140_Y216] | 1.02 | 0.666 | 0.682 | 0.592 | 0.83 | 0.593 | 1.23 | 0.671 | 0.586 | 0.832 | 0.443 | 0.653 | 0.376 | 0.64 | 0.544 | 0.381
CKLCQYFLDHL [ATRX_Y1849_Y1847C_YF] | 1.28 | 0.571 | 0.612 | 0.689 | 0.661 | 0.442 | 1.18 | 0.449 | 0.456 | 1.16 | 0.49 | 0.89 | 0.766 | 1.46 | 1.18 | 1.1
APSEFYDGDHD [HDAC3_Y414_N411S] | 1.3 | 0.659 | 0.55 | 0.78 | 0.923 | 0.639 | 1.35 | 0.615 | 0.528 | 1.32 | 0.51 | 0.932 | 0.565 | 1.1 | 0.733 | 0.544
LITILYIGFLG [KCNQ1_Y267_T265I] | 2.28 | 0.835 | 1.18 | 0.72 | 1.31 | 0.895 | 2.55 | 0.809 | 1.08 | 2.73 | 1.43 | 2.13 | 1.24 | 0.879 | 1.26 | 0.845
VAFLYYKSIGP [ADGRL4_Y302_V300L] | 1.21 | 0.78 | 0.776 | 0.531 | 1.09 | 0.589 | 1.54 | 0.45 | 0.625 | 1.44 | 0.389 | 1.43 | 0.392 | 0.771 | 0.633 | 0.341
